Measurements: article PMC9209446, “Structural basis of template strand deoxyuridine promoter recognition by a viral RNA polymerase”

Target: AR9 nvRNAP promoter-specificity subunit gp226 (sigma-like);AR9 nvRNAP betaN subunit gp105;AR9 nvRNAP betaC … (Bacillus phage AR9 (Bacillus subtilis …, UniProt A0A172JIC8;A0A172JI16;A0A172JHZ2;A0A172JIH0;A0A172JI62 …, ||||))
Assay: X-ray crystallography; crystals from 150 mM MIB pH 5, 150 mM LiCl, 13% PEG 1500; 4 mM MgCl2 in DNA annealing buffer; Complex for structures: 34 uM holoenzyme + 50 uM DNA, 30 min at room temperature; DNA annealed in 20 mM Bis-tris propane pH 6.8, 100 mM NaCl, 4 mM MgCl2, 0.5 mM EDTA; crystallized at 19 C
Settings: protein: recombinant;recombinant;recombinant;recombinant;recombinant; tags: ;;;;; copies: 1;1;1;1;1; 14 bp duplex with 18 nt 3' overhang on strand 1

B1: P077 promoter forked oligonucleotide, template [-16;+16] all U / non-template [+3;+16] (dsDNA)
DNA 1: CTCCAATATGTGATATAATATAUUGUUUATTG
DNA 2: ATCACATATTGGAG
modifications: deoxyuridine at the printed U positions of strand 1; both strands DNA
B1: binds.
